This note sets out measurements from the Immune Epitope Database (IEDB).

In one assay the target is HLA-B*35:01. The experiment in a line: IEDB peptide-MHC binding, purified MHC/competitive/radioactivity; filed as Kd, often an IC50 or EC50 that approximates it; ≥ and ≤ were set here for values at or beyond the usual limits of such assays.
In another assay the target is HLA-A*26:01. Described as above.
Another assay addresses HLA-B*15:01. The assay is described as above.
The next assay concerns the target HLA-A*30:02. The assay is described as above. As to conditions: source organism: Dengue virus 3 Martinique/1243/1999.
The target in a further assay is HLA-A*68:02. The description is as above.
The target in the next assay is HLA-B*15:03. The description is as above.
The target in another assay is HLA-B*08:01. Described as above.
For another assay, the target named is HLA-A*32:01. Described as above.
For a further assay, the target named is HLA-A*30:01. The description is as above. As to conditions: source organism: Vaccinia virus WR.
The target in assay [1] is HLA-A*02:01. The assay is described as above.
A further assay has as its target HLA-A*02:03. Described as above.
The next assay concerns the target HLA-A*02:02. Described as above.
In a further assay the target is HLA-A*23:01. The assay is described as above. As to conditions: source organism: Dengue virus 3 Martinique/1243/1999.
Assay [2] has as its target HLA-A*24:02. Described as above. The following applies: source organism: Dengue virus 3 Martinique/1243/1999.
The target in another assay is HLA-B*07:02. The assay is described as above.
The target of assay [3] is HLA-A*02:01. Briefly: IEDB peptide-MHC binding, purified MHC/competitive/fluorescence; ≥ and ≤ were set here for values at or beyond the usual limits of such assays. As to conditions: source organism: Vaccinia virus.
For assay [4], the target named is HLA-A*24:02. The assay is described as above. The following applies: source organism: Vaccinia virus.
In another assay the target is HLA-A*11:01. The description is as above.
The next assay addresses HLA-B*57:01. Briefly: IEDB peptide-MHC binding, purified MHC/direct/fluorescence; filed as Kd, often an IC50 or EC50 that approximates it; ≥ and ≤ were set here for values at or beyond the usual limits of such assays. As to conditions: source organism: Entamoeba histolytica HM-1:IMSS.
A further assay has as its target HLA-B*58:01. The description is as above. As to conditions: source organism: Entamoeba histolytica HM-1:IMSS.
Assay [5] has as its target HLA-B*51:01. The experiment in a line: IEDB peptide-MHC binding, purified MHC/competitive/fluorescence; filed as Kd, often an IC50 or EC50 that approximates it; ≥ and ≤ were set here for values at or beyond the usual limits of such assays. The following applies: source organism: West Nile virus.
A further assay deals with HLA-A*02:06. Briefly: IEDB peptide-MHC binding, purified MHC/competitive/radioactivity; filed as Kd, often an IC50 or EC50 that approximates it; ≥ and ≤ were set here for values at or beyond the usual limits of such assays. As to conditions: source organism: Trypanosoma cruzi.
Assay [6] has as its target HLA-B*51:01. Described as above.
In another assay the target is HLA-B*53:01. The assay is described as above.
[7] abbreviates: source organism: Dengue virus 3 Martinique/1243/1999.
[8] abbreviates: source organism: Dengue virus 2 Jamaica/1409/1983.
Where [9] appears, read: source organism: Vaccinia virus Copenhagen.
Setting [10] is: source organism: Vaccinia virus WR.
The mark [11] stands for this setting: source organism: Dengue virus 4 Philippines/H241/1956.
[12] abbreviates: source organism: Dengue virus 1 Brazil/97-11/1997.
Where [13] appears, read: source organism: Zaire ebolavirus.
Setting [14] is: source organism: Trypanosoma cruzi.

A word on the Kd: it is the concentration at which binding is half-saturated. For MVHQIFGSAY, the Kd with HLA-B*35:01 (setting [7]) was 18 nM; in the assay with HLA-A*26:01 (setting [7]), 11.6 nM; in the assay with HLA-B*15:01 (setting [7]) it was 37.2 nM; with HLA-A*30:02, not below 61900 nM.

In the case of ETILELTDAL, the Kd in the assay with HLA-A*68:02 (setting [8]) was 134 nM; with HLA-A*26:01 (setting [8]), 277 nM.

SLNSIFNTF: the Kd is 209 nM in the assay with HLA-B*15:03 (setting [9]), not below 30600 nM in the assay with HLA-B*08:01 (setting [9]), 2.22 nM with HLA-B*15:01 (setting [9]) and 13.8 nM with HLA-A*32:01 (setting [9]).

Take IKVLVEHGF: the Kd with HLA-A*30:01 was 5930 nM; with HLA-B*15:03 (setting [10]), 473 nM; in the assay with HLA-B*08:01 (setting [10]), not below 77700 nM; in the assay with HLA-B*15:01 (setting [10]), 9690 nM; in the assay with HLA-A*32:01 (setting [10]), 11300 nM.

On to VLQRNCAAYL, for which the Kd with HLA-A*02:01 [1] (source organism: Homo sapiens) was 95.7 nM; with HLA-A*68:02 (source organism: Homo sapiens), not below 60000 nM; with HLA-A*02:03 (source organism: Homo sapiens) it was 94.8 nM; with HLA-A*02:02 (source organism: Homo sapiens), 18 nM.

For HMIAGVFFTF, the dissociation constant Kd was not below 32800 nM in the assay with HLA-A*26:01 (setting [7]), 28.9 nM with HLA-A*23:01, 98.9 nM with HLA-A*24:02 [2] and 1.47 nM with HLA-B*15:01 (setting [7]).

In the case of RPLSEKEENM, the Kd was not below 30100 nM with HLA-B*35:01 (setting [11]) and 2030 nM with HLA-B*07:02 (setting [11]).

With TSVGKLVHQV, the Kd with HLA-A*68:02 (setting [12]) turned out to be 37.1 nM.

As to KLLEGEESRI, the Kd in the assay with HLA-A*68:02 (source organism: Homo sapiens) is not below 60000 nM.

On to GTAKLRWFV, for which, in the assay with HLA-A*68:02 (setting [12]), the Kd was determined as 30.7 nM.

One may read the IC50 as the concentration that gives 50% inhibition. Take VSYNDYFNV: the IC50 was 743 nM in the assay with HLA-A*02:01 [3], not below 77100 nM with HLA-A*24:02 [4] and 14300 nM with HLA-A*11:01 (source organism: Vaccinia virus).

For LLYTANFTF, the dissociation constant (Kd) with HLA-B*15:01 (setting [10]) amounted to 2.43 nM; with HLA-A*32:01 (setting [10]), 6.72 nM.

Turning to PNRSTKGGQ, the IC50 with HLA-A*11:01 (setting [13]) amounted to 46500 nM.

For TAYEKLWYI, the Kd came out at 650 nM with HLA-B*57:01 and 130 nM with HLA-B*58:01.

As for ESHNQTFLI, the Kd in the assay with HLA-A*68:02 (setting [8]) came out at 3.51 nM.

On to RPAVGGKTV, for which, in the assay with HLA-B*51:01 [5], the Kd was not below 20000 nM.

As for IQTMDGQEL, the equilibrium dissociation constant (Kd) in the assay with HLA-B*15:03 (setting [10]) worked out at 144 nM.

Regarding RKVKSYNYM, the Kd with HLA-B*15:03 (setting [10]) was determined as 2.58 nM.

Turning to AEMMAPSMF, in the assay with HLA-B*15:03 (setting [10]), the Kd came to 17.2 nM.

Regarding LLGLWGFAAQ, the Kd with HLA-A*02:06 was determined as 462 nM; with HLA-A*02:01 [1] (setting [14]), 1100 nM; in the assay with HLA-A*68:02 (setting [14]), 1820 nM; with HLA-A*02:03 (setting [14]), 394 nM; with HLA-A*02:02 (setting [14]), 1240 nM.

STLPETTVVRR: in the assay with HLA-B*07:02 (source organism: Hepatitis B virus subtype adw2), the Kd is not below 35000 nM.

For the sequence FPYSIPATLL, the Kd with HLA-B*51:01 [6] (setting [7]) was found to be 325 nM; with HLA-B*35:01 (setting [7]), 131 nM; with HLA-B*53:01 (setting [7]), 9.97 nM; in the assay with HLA-B*07:02 (setting [7]), 28 nM.

For FSPGTSGSPI, the Kd with HLA-B*51:01 [6] (setting [8]) worked out at 12800 nM; in the assay with HLA-A*68:02 (setting [8]) it was 294 nM.

As to FTQQALSSF, the Kd in the assay with HLA-B*15:03 (setting [10]) is 6.43 nM.

Turning to VPSIKSGNDI, the values for the dissociation constant (Kd) with HLA-B*51:01 [6] (setting [12]), with HLA-B*53:01 (setting [12]) and with HLA-B*07:02 (setting [12]) were not below 22000 nM, not below 47600 nM and 1370 nM, respectively.

In the assay with HLA-A*11:01 (setting [13]), NISGQSPAR came in with an IC50 of 47600 nM.

Turning to YKVASAGISY, the Kd with HLA-B*35:01 (setting [11]) came out at 70.4 nM; with HLA-B*15:01 (setting [11]), 2.96 nM.

For RAYMATTIL, the Kd with HLA-B*15:03 (setting [10]) was determined as 17.5 nM.
